Laboratory results as given in publication PMC11997583.

Assays:
[1] = GFP/γH2AX colocalisation foci after damage, U2OS; details: glycan lost; control: GFP-YTHDC1-WT, no inhibitor
[2] = neutral comet assay after Zeocin; details: glycan lost; control: YTHDC1-WT rescue after siYTHDC1
[3] = γH2AX foci count after Zeocin release; details: glycan lost; control: GFP-YTHDC1-WT
[4] = CCK-8 assay, Zeocin doses and durations; details: glycan lost; control: YTHDC1-WT
[5] = GFP foci count after Zeocin or IR, U2OS; details: glycan lost; control: GFP-YTHDC1-WT
[6] = Rad51/γH2AX co-staining after Zeocin, U2OS; details: glycan lost; control: YTHDC1-WT rescue after siYTHDC1
[7] = FRAP of GFP-YTHDC1 puncta, basal conditions; details: glycan lost; control: GFP-YTHDC1-WT
[8] = FRAP of GFP-YTHDC1 puncta, Zeocin vs untreated; details: glycan lost; control: GFP-YTHDC1-WT
[9] = chromatin fractionation, anti-Flag blot, Zeocin, 293T; details: glycan lost; control: YTHDC1-WT

Substance | localisation_or_trafficking [1] | other: DSB repair kinetics [2] | other: persisting γH2AX foci after damage [3] | other: cell survival after Zeocin [4] | localisation_or_trafficking [5] | other: Rad51 recruitment to DSBs [6] | other: condensate dynamics (FRAP recovery) [7] | other: Zeocin-induced change in FRAP rate [8] | localisation_or_trafficking [9]
YTHDC1: OSMI-1 | decreases |  |  |  |  |  |  |  | 
YTHDC1: S396A | decreases | decreases | increases | decreases | decreases | decreases | increases | abolishes | abolishes
